From patent publication US20200399712A1, “COMPOSITIONS AND METHODS FOR THE DIAGNOSIS AND DETECTION OF TUMORS AND CANCER PROGNOSIS” (priority 2018, published 2020)
“Also recorded” adds a separate entry of the source. Marks after values point to notes of the source that are not given here.

Tests used:
HPV-16 [1] = experiment: qPCR on 20 ng DNA from saliva samples of HPV-HNSCC patients; settings: 28 HPV-HNSCC saliva samples
Protocol: (§1) All samples were run in triplicates.
The sensitivity of detection from saliva 20 ng DNA samples is 32.1% (9/28) in E6 primer-probe sets, 42.9% (12/28) in E7 primer-probe sets, 35.7% (10/28) in “Min-5” primer-probe sets, 46.4% (13/28) in “Max-10” primer-probe sets. The sensitivity of combination of “5” and “10” is 50% (14/28) and that of E6 and E7 is 42.9% (12/28). By the standard curve analysis, the copy numbers that detected by “Max-10” primer-probe sets were the highest in these 4 primer-probe sets. The slope of standard curve is −3.5 in “Min-5” primer-probe sets when delta Rn is plotted against cycle threshold (FIG. 5).

HPV-16 [2] = experiment: qPCR sensitivity against HPV-HNSCC tumor samples diluted among 10 ng normal human DNA
Protocol: Quantitative real-time polymerase chain reaction (qRT-PCR) was used to examine the threshold in each experiment. qRT-PCR was performed using Quant Studio 6 Flex Real-Time PCR System (Thermo Fisher Scientific). All samples were run in triplicates. HPV-16 viral amplicon copy number estimations were developed using the CaSki cell line. After amplification of the amplicon by PCR, DNA concentration was calculated by weight NanoDrop®, then converted to DNA copy number by calculation based on the molecular weight of the double stranded amplicon. […] In the other 32 HPV-HNSCC cohort, Applicants diluted the tumor sample to 990 pg, 198 pg, 99 pg, 39.6 pg, 7.9 pg, 3.2 pg, and 1.6 pg of amount tumor weight, (correspond to 150, 30, 15, 6, 1.2, 0.6, and 0.3 cells: assumption that 1 tumor cell have 6.6 pg DNA (=3*10^9 (human DNA genome bp)*2 (diploid)*1.67*10^(−24) g (weight/Dalton))) combined with 10 ng normal leukocyte human DNA and compare the threshold of each primer-probe sets.
In this regard, Applicants investigated the other 32 HPV-HNSCC tumor samples. From the assumption that 1 cell tumor DNA contain 6.6 pg DNA, Applicants made the dilution series by DNA derived from normal lymphocyte as described and decide the threshold for each primer-probe set.
Furthermore, to determine whether these designed primer/probe sets also have a high sensitivity in a separate cohort, Applicants performed PCR in a validation cohort of 32 additional primary tumor samples with validated presence of HPV-16. Applicants prepared serial of dilutions of tumor DNA in normal lymphocyte DNA from non-cancer individuals and determined the threshold for each primer/probe set and defined amplification thresholds expressed in number of tumor cells for each sample (Table 5).

HPV16 DNA [3] = experiment: CLIA test for HPV16, performance characteristics in salivary rinse
Text: (§2) These primer/probe sets were adapted for development of a CLIA test for HPV16 DNA detection in plasma and salivary rinses (Table 2). Test performance was improved, so that analytical sensitivity in salivary rinse spike in assays ranges from 2.5-5.0 DNA copies/mL with 100% specificity for the three primer/probe sets that are now part of the component assay, resulting in a five-fold improvement in analytic sensitivity that is in the range of sensitivity found in sequence based liquid biopsy methods (FIG. 23, Table 2). Additionally, the assays can be used quantitatively, with measuring ranges between 2.0 log10-7.0 log10 copies/mL.

HPV16 DNA [4] = experiment: CLIA test for HPV16, performance characteristics in plasma
Text: as §2

HPV DNA = experiment: CLIA HPV test pilot study on saliva rinse samples from HPV-positive HNSCC patients and non-cancer controls; parameters: species or system HPV16; HPV16 DNA measured by CLIA HPV test: unit not given here
Protocol: As a final validation, Applicants a small pilot study was performed on a blinded set of saliva rinse samples from 28 patients with HPV-positive HNSCC and 15 salivary rinses from non-cancer controls. […] The sensitivity increased to 96% when all three sets were used (Table 3).

HPV-16 genome = experiment: qPCR sensitivity against HPV-16 copy number (known-copy HPV-16 DNA among 10 ng normal human DNA)
Text: as §1
To seek the most promising primer-probe set in the viewpoint of sensitivity, Applicants evaluated the sensitivity analysis for these candidate primer-probe sets. […] Therefore, the sensitivity of E6 (FIG. 3A) and E7 (FIG. 3B) was also 30 copies. […] The candidate primer-probe sets were the “Min-4” (FIG. 3C), “Min-5” (FIG. 3D), “Min-6” (FIG. 3E), “Max-10” (FIG. 3F), “E6-11” (FIG. 3G), “E6-13” (FIG. 3H), respectively.
In addition, Applicants performed sensitivity analysis to identify the most sensitive primer/probe set from among the candidate sets.
To validate the function of primer/probe sets, Applicants calculated the slope of delta Rn against cycle threshold for HPV-16 copy number detection from defined HPV copy number DNA derived from CaSki cell line.

[5] = tumor DNA dilution, fraction of 32 samples
[6] = first template ('... HPV16', word is an image)
[7] = second template (name is an image)
[8] = among 10 ng normal DNA, triplicate qPCR
[9] = samples tested 3 times, 10 ng DNA from healthy individual

B1: E7: previously designed (historical) HPV-16 E7 primers and Taqman probe, SEQ ID NO: 10-12; part of CLIA test (nucleic acid)
DNA 1: CCGGACAGAGCCCATTACAA
DNA 2: CGAATGTCTACGTGTGTGCTTTG
DNA 3: CGCACAACCGAAGCGTAGAGTCACACT
modifications: Taqman probe, labels not given here
notes: part of CLIA test
HPV-16 [1]
  sensitivity of detection from saliva 20 ng DNA samples: 42.9%
HPV-16 [2]; 32 HPV-HNSCC tumor samples
  sensitivity under 100 cells: 96.9%
HPV-16 [2]; 32 HPV-HNSCC tumor samples, 6.6 pg DNA
  sensitivity under single cells: 9.4%
HPV-16 [2]; 32 HPV-HNSCC tumor samples, 66 pg DNA
  sensitivity under 10 cells: 68.8%
HPV-16 [2]; Sample # 1
  Threshold of tumor cell numbers for HPV-16 detection: 60.0 tumor cells
HPV-16 [2]; Sample # 2
  Threshold of tumor cell numbers for HPV-16 detection: 30.0 tumor cells
HPV-16 [2]; Sample # 3
  Threshold of tumor cell numbers for HPV-16 detection: 30.0 tumor cells
HPV-16 [2]; Sample # 4
  Threshold of tumor cell numbers for HPV-16 detection: 150.0 tumor cells
HPV-16 [2]; Sample # 5
  Threshold of tumor cell numbers for HPV-16 detection: 6.0 tumor cells
HPV-16 [2]; Sample # 6
  Threshold of tumor cell numbers for HPV-16 detection: 6.0 tumor cells
HPV-16 [2]; Sample # 7
  Threshold of tumor cell numbers for HPV-16 detection: 30.0 tumor cells
HPV-16 [2]; Sample # 8
  Threshold of tumor cell numbers for HPV-16 detection: 15.0 tumor cells
HPV-16 [2]; Sample # 9
  Threshold of tumor cell numbers for HPV-16 detection: 30.0 tumor cells
HPV-16 [2]; Sample # 10
  Threshold of tumor cell numbers for HPV-16 detection: 6.0 tumor cells
HPV-16 [2]; Sample # 11
  Threshold of tumor cell numbers for HPV-16 detection: 6.0 tumor cells
HPV-16 [2]; Sample # 12
  Threshold of tumor cell numbers for HPV-16 detection: 30.0 tumor cells
HPV-16 [2]; Sample # 13
  Threshold of tumor cell numbers for HPV-16 detection: 6.0 tumor cells
HPV-16 [2]; Sample # 14
  Threshold of tumor cell numbers for HPV-16 detection: 6.0 tumor cells
HPV-16 [2]; Sample # 15
  Threshold of tumor cell numbers for HPV-16 detection: 6.0 tumor cells
HPV-16 [2]; Sample # 16
  Threshold of tumor cell numbers for HPV-16 detection: 6.0 tumor cells
HPV-16 [2]; Sample # 17
  Threshold of tumor cell numbers for HPV-16 detection: 1.2 tumor cells
HPV-16 [2]; Sample # 18
  Threshold of tumor cell numbers for HPV-16 detection: 6.0 tumor cells
HPV-16 [2]; Sample # 19
  Threshold of tumor cell numbers for HPV-16 detection: 1.2 tumor cells
HPV-16 [2]; Sample # 20
  Threshold of tumor cell numbers for HPV-16 detection: 1.2 tumor cells
HPV-16 [2]; Sample # 21
  Threshold of tumor cell numbers for HPV-16 detection: 1.2 tumor cells
HPV-16 [2]; Sample # 22
  Threshold of tumor cell numbers for HPV-16 detection: 1.2 tumor cells
HPV-16 [2]; Sample # 23
  Threshold of tumor cell numbers for HPV-16 detection: 1.2 tumor cells
HPV-16 [2]; Sample # 24
  Threshold of tumor cell numbers for HPV-16 detection: 1.2 tumor cells
HPV-16 [2]; Sample # 25
  Threshold of tumor cell numbers for HPV-16 detection: 0.3 tumor cells
HPV-16 [2]; Sample # 26
  Threshold of tumor cell numbers for HPV-16 detection: 0.3 tumor cells
HPV-16 [2]; Sample # 27
  Threshold of tumor cell numbers for HPV-16 detection: 1.0 tumor cells
HPV-16 [2]; Sample # 28
  Threshold of tumor cell numbers for HPV-16 detection: 1.0 tumor cells
HPV-16 [2]; Sample # 29
  Threshold of tumor cell numbers for HPV-16 detection: 3.0 tumor cells
HPV-16 [2]; Sample # 30
  Threshold of tumor cell numbers for HPV-16 detection: 15.0 tumor cells
HPV-16 [2]; Sample # 31
  Threshold of tumor cell numbers for HPV-16 detection: 0.6 tumor cells
HPV-16 [2]; Sample # 32
  Threshold of tumor cell numbers for HPV-16 detection: 15.0 tumor cells
HPV-16 [2]; [5]
  Sensitivity, 1 cell: 0.094
  Sensitivity, 3 cells: 0.375
  Sensitivity, 10 cells: 0.688
  Sensitivity, 30 cells: 0.938*
  Sensitivity, 100 cells: 0.969*
HPV16 DNA [3]; first template ('... HPV16')
  Measuring Range - Salivary Rinse: 2.0-8.5 log10 log10 copies/mL
HPV16 DNA [3]; [6]
  Limit of Detection - Salivary rinse: 3 copies/mL
HPV16 DNA [3]; [7]
  Limit of Detection - Salivary rinse: 23 copies/mL
  Measuring Range - Salivary Rinse: 2.0-6.5 log10 log10 copies/mL
HPV16 DNA [4]
  Accuracy - Plasma Blind Panel, Negative % Agreement: 90%
  Accuracy - Plasma Blind Panel, Positive % Agreement: 100%
  Accuracy - Plasma Blind Panel, Total % Agreement: 97%
HPV16 DNA [4]; first template ('... HPV16')
  Measuring Range - Plasma: 2.0-8.5 log10 log10 copies/mL
HPV16 DNA [4]; [6]
  Limit of Detection - Plasma: 1.5 copies/mL
HPV16 DNA [4]; [7]
  Limit of Detection - Plasma: 13 copies/mL
  Measuring Range - Plasma: 2.0-5.0 log10 log10 copies/mL
HPV DNA; 28 patients with HPV-positive HNSCC
  sensitivity for the detection of HPV DNA in saliva rinse samples: 82%
HPV DNA; saliva sample from HPV-HNSCC patient # 1
  HPV16 DNA measured by CLIA HPV test: 328000
HPV DNA; saliva sample from HPV-HNSCC patient # 2
  HPV16 DNA measured by CLIA HPV test: 50000
HPV DNA; saliva sample from HPV-HNSCC patient # 3
  HPV16 DNA measured by CLIA HPV test: 48500
HPV DNA; saliva sample from HPV-HNSCC patient # 4
  HPV16 DNA measured by CLIA HPV test: 46500
HPV DNA; saliva sample from HPV-HNSCC patient # 5
  HPV16 DNA measured by CLIA HPV test: 14700
HPV DNA; saliva sample from HPV-HNSCC patient # 6
  HPV16 DNA measured by CLIA HPV test: 7320
HPV DNA; saliva sample from HPV-HNSCC patient # 7
  HPV16 DNA measured by CLIA HPV test: 4950
HPV DNA; saliva sample from HPV-HNSCC patient # 8
  HPV16 DNA measured by CLIA HPV test: 1570
HPV DNA; saliva sample from HPV-HNSCC patient # 9
  HPV16 DNA measured by CLIA HPV test: 1020
HPV DNA; saliva sample from HPV-HNSCC patient # 10
  HPV16 DNA measured by CLIA HPV test: 981
HPV DNA; saliva sample from HPV-HNSCC patient # 11
  HPV16 DNA measured by CLIA HPV test: 521
HPV DNA; saliva sample from HPV-HNSCC patient # 12
  HPV16 DNA measured by CLIA HPV test: 155
HPV DNA; saliva sample from HPV-HNSCC patient # 13
  HPV16 DNA measured by CLIA HPV test: 140
HPV DNA; saliva sample from HPV-HNSCC patient # 14
  HPV16 DNA measured by CLIA HPV test: 82.7
HPV DNA; saliva sample from HPV-HNSCC patient # 15
  HPV16 DNA measured by CLIA HPV test: 62.6
HPV DNA; saliva sample from HPV-HNSCC patient # 16
  HPV16 DNA measured by CLIA HPV test: 41.2
HPV DNA; saliva sample from HPV-HNSCC patient # 17
  HPV16 DNA measured by CLIA HPV test: 14.1
HPV DNA; saliva sample from HPV-HNSCC patient # 18
  HPV16 DNA measured by CLIA HPV test: 9.69
HPV DNA; saliva sample from HPV-HNSCC patient # 19
  HPV16 DNA measured by CLIA HPV test: 8.17
HPV DNA; saliva sample from HPV-HNSCC patient # 20
  HPV16 DNA measured by CLIA HPV test: 6.5
HPV DNA; saliva sample from HPV-HNSCC patient # 21
  HPV16 DNA measured by CLIA HPV test: 4.02
HPV DNA; saliva sample from HPV-HNSCC patient # 22
  HPV16 DNA measured by CLIA HPV test: 2.52
HPV DNA; saliva sample from HPV-HNSCC patient # 23
  HPV16 DNA measured by CLIA HPV test: 0.986
HPV-16 genome; HPV-16 genome among normal 10 ng DNA samples, consistent triplicate reaction
  sensitivity (HPV-16 copies): 30 copies
HPV-16 genome; [8]
  reaction under 10 copies of HPV-16 genome: reacted inconsistently
  reaction under 30 copies of HPV-16 genome: reacted consistently triplicate; also recorded: reacted consistently in triplicates
HPV-16 genome; [9]
  number of reactions against 10 HPV-16 copies: 2 reactions
  number of reactions under 30 HPV-16 copies: 3 reactions
